{"source": "paper PMC7093453", "key": {"[1]": {"molecular_target": "RCC: Rba. sphaeroides reaction centre with SpyCatcherΔ attached directly to the N-terminus of PufL (Rhodobacter sphaeroides) (UniProt P0C0Y9)"}, "[2]": {"molecular_target": "wild-type (WT) reaction centre (RC) of Rhodobacter sphaeroides (Rhodobacter sphaeroides) (UniProt P0C0Y8)"}, "[3]": {"molecular_target": "RCC: Rba. sphaeroides reaction centre with SpyCatcherΔ attached directly to the N-terminus of PufL (Rhodobacter sphaeroides) (UniProt P0C0Y9)", "remark": "listed apart in the source"}, "[4]": {"molecular_target": "RC4C: Rba. sphaeroides reaction centre with SpyCatcherΔ attached to the N-terminus of PufL via a four residue linker (Rhodobacter sphaeroides) (UniProt P0C0Y9)"}}}
{"substance": "LHCI-Td: A. thaliana LHCI heterodimer of unadapted Lhca1 (L1) and SpyTagΔ-adapted Lhca4 (Td-L4) (from UniProt Q01667 36-241) (complex)", "values": [{"measurement": "E (P870): apparent energy transfer efficiency from the rate of RC P870 photobleaching (650 nm excitation), LHCI#RC chimera in solution", "setting": "[1]", "result": 20.2, "unit": "%"}, {"measurement": "EFL: apparent energy transfer efficiency from quenching of LHC emission, LHCI#RC chimera in solution", "setting": "[1]", "result": 20.7, "unit": "%"}, {"measurement": "E (P870): apparent energy transfer efficiency from the rate of RC P870 photobleaching (650 nm excitation), mixture in solution", "setting": "[2]", "result": 1.3, "unit": "%"}, {"measurement": "EFL: apparent energy transfer efficiency from quenching of LHC emission, mixture in solution", "setting": "[2]", "result": 10.3, "unit": "%"}, {"measurement": "Ea4: apparent energy transfer efficiency for the LHCI#RC chimera, from E (P870)", "setting": "[3]", "result": 20.1, "unit": "%"}]}
{"substance": "LHCII-T: full SpyTag sequence added to the C-terminus of the full A. thaliana Lhcb1", "values": [{"measurement": "E (P870): apparent energy transfer efficiency from the rate of RC P870 photobleaching (650 nm excitation), LHCII#RC chimera in solution", "setting": "[1]", "result": 22.8, "unit": "%"}, {"measurement": "EFL: apparent energy transfer efficiency from quenching of LHC emission, LHCII#RC chimera in solution", "setting": "[1]", "result": 19.6, "unit": "%"}, {"measurement": "E (P870): apparent energy transfer efficiency from the rate of RC P870 photobleaching (650 nm excitation), mixture in solution", "setting": "[2]", "result": 1.2, "unit": "%"}, {"measurement": "EFL: apparent energy transfer efficiency from quenching of LHC emission, mixture in solution", "setting": "[2]", "result": 0.8, "unit": "%"}]}
{"substance": "Td-LHCI-Td: A. thaliana LHCI heterodimer of SpyTagΔ-adapted Lhca1 (Td-L1) and SpyTagΔ-adapted Lhca4 (Td-L4) (complex)", "values": [{"measurement": "E (P870): apparent energy transfer efficiency from the rate of RC P870 photobleaching (650 nm excitation), RC#LHCI#RC chimera in solution", "setting": "[1]", "result": 29.1, "unit": "%"}, {"measurement": "EFL: apparent energy transfer efficiency from quenching of LHC emission, RC#LHCI#RC chimera in solution", "setting": "[1]", "result": 27.4, "unit": "%"}, {"measurement": "E (P870): apparent energy transfer efficiency from the rate of RC P870 photobleaching (650 nm excitation), mixture in solution (molar ratio of RC to LHC two)", "setting": "[2]", "result": 3.3, "unit": "%"}, {"measurement": "EFL: apparent energy transfer efficiency from quenching of LHC emission, mixture in solution", "setting": "[2]", "result": 9.3, "unit": "%"}, {"measurement": "Ea1: efficiency of energy transfer to the Lhca1-connected RC in the RC#LHCI#RC chimera, from E (P870) (Eq. 5)", "setting": "[3]", "result": 13.9, "unit": "%"}, {"measurement": "Ea1: efficiency of energy transfer to the Lhca1-connected RC in the RC#LHCI#RC chimera, from EFL (Eq. 5)", "setting": "[3]", "result": 10.4, "unit": "%"}]}
{"substance": "Td-dLHCII: SpyTagΔ added to the N-terminus of the truncated A. thaliana Lhcb1", "values": [{"measurement": "E (P870): apparent energy transfer efficiency from the rate of RC P870 photobleaching (650 nm excitation), RC#LHCII chimera in solution", "setting": "[4]", "result": 21, "unit": "%"}, {"measurement": "EFL: apparent energy transfer efficiency from quenching of LHC emission, RC#LHCII chimera in solution", "setting": "[4]", "result": 20.3, "unit": "%"}]}
